Assay results from article PMC11420629 (2024).

Biological target: T1, GluR1 carboxy‐terminal region (SPR)
T1 chain: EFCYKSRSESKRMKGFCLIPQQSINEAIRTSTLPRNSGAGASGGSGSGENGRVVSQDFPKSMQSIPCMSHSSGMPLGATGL
Experiment: SPR

B1: full‐length CIRP protein (SPR) (natural protein)
chain: MASDEGKLFVGGLSFDTNEQALEQVFSKYGQISEVVVVKDRETQRSRGFGFVTFENIDDAKDAMMAMNGKSVDGRQIRVDQAGKSSDNRSRGYRGGSAGGRGFFRGGRSRGRGFSRGGGDRGYGGGRFESRSGGYGGSRDYYASRSQGGSYGYRSSGGSYRDSYDSYATHNE
With B1 the Kd was 1010 nM.
